From patent publication US20150210768A1, “Methods and Compounds for Preventing, Treating and Diagnosing an Inflammatory Condition” (Westfaelische Wilhelms-Universitaet Muenster, priority 2012, published 2015)
Where a chain is given by its changes, count along the chain named. Names and notes keep the numbering of the source.

What was measured:
his-tagged rhTLR4/MD2 [1] = molecular target: T1, his-tagged rhTLR4/MD2 (human, UniProt O00206 24-631; Q9Y6Y9 19-160); assay: pull-down on beads carrying TLR4/MD2, MALDI-TOF mass spectrometry of the eluate
T1 construct: Bought recombinant human complex (carrier free, R&D SYSTEMS), his-tagged; In the pull-down it was captured by anti-His antibody on Protein A/G agarose; in the ELISA it was coated on the plate; also called TLR4/MD2 complex; TRLR4/MD2
T1 sequence (O00206 24-631 limits assumed, chain 1 of 2): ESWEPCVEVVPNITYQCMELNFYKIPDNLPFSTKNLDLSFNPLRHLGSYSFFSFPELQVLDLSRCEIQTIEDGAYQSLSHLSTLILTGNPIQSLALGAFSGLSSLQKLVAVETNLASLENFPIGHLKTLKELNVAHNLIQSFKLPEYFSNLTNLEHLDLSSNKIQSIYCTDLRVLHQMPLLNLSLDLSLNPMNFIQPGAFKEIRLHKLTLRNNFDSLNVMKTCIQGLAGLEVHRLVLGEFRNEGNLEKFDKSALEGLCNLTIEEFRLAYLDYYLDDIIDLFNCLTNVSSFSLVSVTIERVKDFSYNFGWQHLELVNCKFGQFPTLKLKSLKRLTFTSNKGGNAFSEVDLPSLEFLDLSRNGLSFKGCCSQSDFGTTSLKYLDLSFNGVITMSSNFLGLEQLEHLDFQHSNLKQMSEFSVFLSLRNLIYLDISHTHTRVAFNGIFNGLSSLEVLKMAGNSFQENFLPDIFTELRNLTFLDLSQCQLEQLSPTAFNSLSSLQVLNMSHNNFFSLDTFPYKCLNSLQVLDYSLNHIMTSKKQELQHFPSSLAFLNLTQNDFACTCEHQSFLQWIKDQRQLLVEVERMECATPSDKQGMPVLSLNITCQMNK
T1 sequence (Q9Y6Y9 19-160 limits assumed, chain 2 of 2): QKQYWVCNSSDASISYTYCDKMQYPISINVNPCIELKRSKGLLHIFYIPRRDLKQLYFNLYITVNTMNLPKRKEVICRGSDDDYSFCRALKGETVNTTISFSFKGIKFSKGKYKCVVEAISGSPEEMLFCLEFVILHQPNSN
Description: Anti-His antibody (5 μL, 0.5 mg/mL, Invivogen) and his-tagged rhTLR4/MD2 (5 μL, 1 mg/mL, carrier free, R&D SYSTEMS) were mixed and coupled to Protein A/G Agarose (50 μl, Pierce, Thermo Scientific). Trypsin digested peptides of S100A9 were added for 3 h at 4° C. in the presence of 1 mM Calcium. After washing of the beads in HBS/1 mM Ca-buffer for three times bound peptidic fragments were eluted by addition of 10 mM TRIS/2 mM EDTA-buffer and analysed by ESI-QIT- and MALDI-TOF-mass spectrometry. Identical experiments were performed to analyze the binding of the chemical synthesized peptides of S100A9 (aa63-79), S100A8 (aa55-71) and the corresponding control peptides aa63-79 AS and aa55-71 A3.

his-tagged rhTLR4/MD2 [2] = molecular target: T1, his-tagged rhTLR4/MD2; assay: modified S100A9 ELISA, TLR4/MD2 coated on the plate, 2 ug/ml S100A9, absorbance at 450 nm
Description: Binding of S100A9 proteins to TLR4/MD2 was analysed by a modified S100A9-ELISA. Briefly, TLR4/MD2 was coupled to the wells of a 96-well plate and served as capturing molecule. After blocking of the unspecific binding sites by PBS/5% skim milk powder plates were washed three times. S100A9-wt or mutant S100A9 proteins were added at a concentration of 2 μg/ml each in the presence and absence of 100 μM Calcium and incubated for two hours at room temperature. Unbound S100A9 was removed by washing the plates for three times followed by the addition of a primary anti-S100A9-antibody (1 μg/ml, polyclonal, rabbit). After a washing step the secondary anti-rabbit-IgG-antibody coupled to HRP (1 μg/ml from Cell Signalling) was added. TMB was used as substrate for HRP to quantify binding by absorbance readings at 450 nm in an ELISA reader (Anthos Mirkosysteme).

human monocytes = assay: Stimulation of human monocytes, TNFα release quantified by ELISA; type: cell-based; details: human monocytes stimulated for four hours; TNFα by ELISA; FIG. 1
Description: Using standard techniques known in the art, the inventors expressed the individual human proteins S100A8 and S100A9 in recombinant form, and purified them. After generating homodimers and heterodimers, they analysed the properties of the complexes. FIG. 1 illustrates the stimulation of human monocytes for four hours with the indicated concentrations of (A) recombinant human S100A8, recombinant human S100A9 or human S100A8/S100A9, and (B) recombinant human S100A8/S100A9, recombinant human S100A8/S100A9 (N69A) or S100A8/S100A9 (E78A). TNFα released into the culture medium was quantified by means of ELISA.
Monocytes were isolated from human buffy coats by Ficoll-Paque and subsequent Percoll density centrifugation (Pharmacia, Freiburg, Germany) Cells were cultured in Teflon bags (Biofolie 25; Heraeus Instruments, Hanau, Germany) using McCoy's 5a medium supplemented with 15% fetal calf serum for 1 day before stimulation. Monocytes were incubated for 4 hours with different dosis of hS100A8, hS100A9, hS100A8/S100A9 or the modified proteins as indicated in the figures and TNF-α concentrations in supernatants were determined by ELISA (OptEIA, BD Biosciences, Germany).
Release of cytokine TNF-α was measured in the culture supernatants by ELISA (OptEIA, BD Biosciences). […]

[3] = system: (S100A8/S100A9)2 tetramers; assay: Formation of (S100A8/S100A9)2 tetramers after site directed mutagenesis; design: species or system human; details: mutation in second calcium binding EF hand of S100A9
Description: For the expression of recombinant (rec) proteins without additional peptide sequences, the cDNAs from wt S100A8, wt S100A9 and the S100A9 EF-hand mutants were cloned into the pET11/20 vector [50-NdeI; 30-BamHI]. […] Bacteria were grown at 37° C. in 2×YT for 24 h. Afterwards bacteria were harvested, lysed and the inclusion bodies (IB) prepared. The IB pellet was dissolved in 8 M urea buffer and to establish proper refolding samples were adjusted to pH 2.0-2.5 first by adding hydrochloric acid. After 60 min incubation at room temperature, samples were stepwise dialyzed to get adapted to pH 7.4 for refolding in the presence of 2 mM DTT. After centrifugation (10 min, 60,000 g, 4° C.) to pellet aggregated material, samples were further dialyzed and applied to anion exchange column and gel filtration chromatography. To prepare heterodimeric complexes the recombinant proteins were mixed 1:1 in equimolar concentrations first. Samples were stored as stock solutions at −20° C. Correct refolding and complex formation was assessed by SDS-PAGE, CD spectroscopy, MALDI-MS and ESI-MS.

B1: control peptide 63-79 5A of S100A9 (E64A, D65A, K72A, Q73A, E77A) (peptide)
peptide: MAALDTNADAALSFAEF
notes: Chemically synthesized control peptide, molecular weight 1758 g/mol; Positions follow the numbering of full-length S100A9 ('nomenclature of S100A9 maintained'); also called 63-79 A5; 63-79 AS
B1: no binding (his-tagged rhTLR4/MD2 [1]).

B2: recombinant human S100A9 (wild type, homodimer) (ligand)
chain: MTCKMSQLERNIETIINTFHQYSVKLGHPDTLNQGEFKELVRKDLQNFLKKENKNEKVIEHIMEDLDTNADKQLSFEEFIMLMARLTWASHEKMHEGDEGPGHHHKPGLGEGTP
notes: Uniprot P06702; used as a homodimer; also called S100A9 wt; S100A9-wt
B2: binds (his-tagged rhTLR4/MD2 [2]).

B3: S100A8/S100A9 (E78A): recombinant human S100A8/S100A9 with S100A9 EF hand II mutation E78A, prevents tetramer formation (protein)
chain 1: MLTELEKALNSIIDVYHKYSLIKGNFHAVYRDDLKKLLETECPQYIRKKGADVWFKELDINTDGAVNFQEFLILVIKMGVAAHKKSHEESHKE
chain 2: B2 chain with E78A
With B3 the “activation of monocytes (TNFα released into the culture medium)” value (human monocytes) was “activation of monocytes that is comparable to the activation caused by homodimers” and the tetramer formation [3] was “inhibition of tetramer formation”.
